# Measured values as given in US20040010124A1 (MacroGenics, published 2004).
# Target: T1, soluble form of human CD16A (sCD16A) (human, UniProt P08637 17-203)
# T1 construct: CD16A gene truncated just prior to the transmembrane region, expressed in HEK-293; The last seven residues come from vector pCDNA3.1; also called sFcRIIIa
# Test: ELISA, sCD16A captured by mAb LNK-16
# Procedure: The plate was washed and dilutions of recombinant antibodies starting at 0.5 μg/ml in PBS-T-BSA were then added and incubated for 1 hr at room temp. […] After stopping color development using dilute sulfuric acid, the plate was read at 450 nm.
# T1 sequence (P08637 other isoform, or with tags, fused parts or gaps limits assumed): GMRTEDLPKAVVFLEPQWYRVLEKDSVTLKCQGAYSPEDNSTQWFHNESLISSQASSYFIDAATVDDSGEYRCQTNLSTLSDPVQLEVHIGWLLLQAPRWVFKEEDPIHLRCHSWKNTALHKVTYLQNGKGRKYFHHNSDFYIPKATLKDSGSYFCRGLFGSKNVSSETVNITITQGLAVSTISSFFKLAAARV
row,Binder,binding result
1,"hu3G8VH-40/hu3G8VL-1 (antibody, V domains shown, Human Cγ1/Cκ constant regions; HEK-293) VH: QITLKESGPTLVKPTQTLTLTCTFSGFSLSTSGVGVGWIRQPPGKALEWLAHIFWDDDKRYSPSLKSRLTISKDTSKNQVVLTMTNMDPVDTATYYCARINPAWFAYWGQGTLVTVSS VL: DIVMTQSPDSLAVSLGERATINCKASQSVDFDGDSFMNWYQQKPGQPPKLLIYTTSNLESGVPDRFSGSGSGTDFTLTISSLQAEDVAVYYCQQSNEDPYTFGQGTKLEIK",binds
2,"hu3G8VH-42/hu3G8VL-1 (antibody, V domains shown, Human Cγ1/Cκ constant regions; HEK-293) VH: QITLKESGPTLVKPTQTLTLTCTFSGFSLSTSGVGVGWIRQPPGKALEWLAHIWWDDDKRYSPSLKSRLTITKDTSKNQVVLTMTNMDPVDTATYYCARINPAWFAYWGQGTLVTVSS VL: DIVMTQSPDSLAVSLGERATINCKASQSVDFDGDSFMNWYQQKPGQPPKLLIYTTSNLESGVPDRFSGSGSGTDFTLTISSLQAEDVAVYYCQQSNEDPYTFGQGTKLEIK",binds
3,"hu3G8VH-43/hu3G8VL-1 (antibody, V domains shown, Human Cγ1/Cκ constant regions; HEK-293) VH: QITLKESGPTLVKPTQTLTLTCTFSGFSLSTSGVGVGWIRQPPGKALEWLAHIWWDDDKRYSPSLKSRLTITKDTSKNQVVLTMTNMDPVDTATYYCARINPAYFAYWGQGTLVTVSS VL: DIVMTQSPDSLAVSLGERATINCKASQSVDFDGDSFMNWYQQKPGQPPKLLIYTTSNLESGVPDRFSGSGSGTDFTLTISSLQAEDVAVYYCQQSNEDPYTFGQGTKLEIK",binds
4,"hu3G8VH-44/hu3G8VL-1 (antibody, V domains shown, Human Cγ1/Cκ constant regions; HEK-293) VH: QITLKESGPTLVKPTQTLTLTCTFSGFSLSTSGVGVGWIRQPPGKALEWLAHIWWDDDKRYSPSLKSRLTITKDTSKNQVVLTMTNMDPVDTATYYCAHINPAYFDYWGQGTLVTVSS VL: DIVMTQSPDSLAVSLGERATINCKASQSVDFDGDSFMNWYQQKPGQPPKLLIYTTSNLESGVPDRFSGSGSGTDFTLTISSLQAEDVAVYYCQQSNEDPYTFGQGTKLEIK",binds
5,"hu3G8VH-45/hu3G8VL-1 (antibody, V domains shown, Human Cγ1/Cκ constant regions; HEK-293) VH: QITLKESGPTLVKPTQTLTLTCTFSGFSLSTSGVGVGWIRQPPGKALEWLAHIWWDDDKRYSPSLKSRLTITKDTSKNQVVLTMTNMDPVDTATYYCAQINPAYFDYWGQGTLVTVSS VL: DIVMTQSPDSLAVSLGERATINCKASQSVDFDGDSFMNWYQQKPGQPPKLLIYTTSNLESGVPDRFSGSGSGTDFTLTISSLQAEDVAVYYCQQSNEDPYTFGQGTKLEIK",binds

# Target: T1, soluble form of human CD16A (sCD16A)
# Test: in vitro, method not given
# Description: The same format was used to assay binding of sFcRs to immune complexes (IC) formed on the ELISA plate between ch4-4-20 and FITC-BSA.
# After one hour, binding of the soluble receptor to the IC was detected using streptavidin-HRP conjugate and TMB development.
row,Binder,binding result
1,"chimeric antibody ch3G8 (ch3G8VH/ch3G8VL) (antibody, V domains shown, Mouse 3G8 VH (FR4 ala to ser) on human Cγ1 and mouse 3G8 VL on human Cκ; also called chimeric 3G8; ch3G8-γ1) VH: QVTLKESGPGILQPSQTLSLTCSFSGFSLRTSGMGVGWIRQPSGKGLEWLAHIWWDDDKRYNPALKSRLTISKDTSSNQVFLKIASVDTADTATYYCAQINPAWFAYWGQGTLVTVSS VL: DTVLTQSPASLAVSLGQRATISCKASQSVDFDGDSFMNWYQQKPGQPPKLLIYTTSNLESGIPARFSASGSGTDFTLNIHPVEEEDTATYYCQQSNEDPYTFGGGTKLEIK",binds
